According to patent publication US20230063965A1 (YEDA RESEARCH AND DEVELOPMENT, published 2023):

T1: hFcγRIIA R131 (human, UniProt P12318 34-218, limits assumed)
T1 construct: R131 allotype as printed (131 is mature-protein numbering)
T1 sequence (looked up): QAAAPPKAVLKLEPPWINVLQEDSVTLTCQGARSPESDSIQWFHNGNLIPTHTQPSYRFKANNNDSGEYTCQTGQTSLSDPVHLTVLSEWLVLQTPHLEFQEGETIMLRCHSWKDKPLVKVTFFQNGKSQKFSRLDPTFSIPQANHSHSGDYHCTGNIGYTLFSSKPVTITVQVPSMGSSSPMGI

T2: hFcγRIIB (human, UniProt P31994 43-217, limits assumed)
T2 construct: also called CD32B; huFcγRIIB
T2 sequence (looked up): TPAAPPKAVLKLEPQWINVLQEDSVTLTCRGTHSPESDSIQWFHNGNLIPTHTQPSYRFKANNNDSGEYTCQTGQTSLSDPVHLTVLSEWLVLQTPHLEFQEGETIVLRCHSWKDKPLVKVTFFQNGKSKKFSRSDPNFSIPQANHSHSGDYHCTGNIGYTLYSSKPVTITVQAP

B1: Avelumab Afucosylated Fc variant (antibody, human IgG1, lambda)
heavy: not shown
light: QSALTQPASVSGSPGQSITISCTGTSSDVGGYNYVSWYQQHPGKAPKLMIYDVSNRPSGVSNRFSGSKSGNTASLTISGLQAEDEADYYCSSYTSSSTRVFGTGTKVTVLGQPKANPTVTLFPPSSEELQANKATLVCLISDFYPGAVTVAWKADGSPVKAGVETTKPSKQSNNKYAASSYLSLTPEQWKSHRSYSCQVTHEGSTVEKTVAPTECS
modifications: afucosylated Fc glycan (N297, EU); fucose content of about 28%
notes: also called non-fucosylated Fc glycan
B2: Avelumab IgG1 (wild type human IgG1) (antibody)
heavy: not shown
light: B1 light
notes: Made recombinantly in Expi293 cells
B3: Avelumab GASDALIE (G236A/S239D/A330L/I332E) (antibody, human IgG1, lambda)
heavy: EVQLLESGGGLVQPGGSLRLSCAASGFTFSSYIMMWVRQAPGKGLEWVSSIYPSGGITFYADTVKGRFTISRDNSKNTLYLQMNSLRAEDTAVYYCARIKLGTVTTVDYWGQGTLVTVSSASTKGPSVFPLAPSSKSTSGGTAALGCLVKDYFPEPVTVSWNSGALTSGVHTFPAVLQSSGLYSLSSVVTVPSSSLGTQTYICNVNHKPSNTKVDKKVEPKSCDKTHTCPPCPAPELLAGPDVFLFPPKPKDTLMISRTPEVTCVVVDVSHEDPEVKFNWYVDGVEVHNAKTKPREEQYNSTYRVVSVLTVLHQDWLNGKEYKCKVSNKALPLPEEKTISKAKGQPREPQVYTLPPSRDELTKNQVSLTCLVKGFYPSDIAVEWESNGQPENNYKTTPPVLDSDGSFFLYSKLTVDKSRWQQGNVFSCSVMHEALHNHYTQKSLSLSPGK
light: B1 light
notes: also called GASDLIE
B4: Avelumab ALIE (A330L/I332E) (antibody, human IgG1, lambda)
heavy: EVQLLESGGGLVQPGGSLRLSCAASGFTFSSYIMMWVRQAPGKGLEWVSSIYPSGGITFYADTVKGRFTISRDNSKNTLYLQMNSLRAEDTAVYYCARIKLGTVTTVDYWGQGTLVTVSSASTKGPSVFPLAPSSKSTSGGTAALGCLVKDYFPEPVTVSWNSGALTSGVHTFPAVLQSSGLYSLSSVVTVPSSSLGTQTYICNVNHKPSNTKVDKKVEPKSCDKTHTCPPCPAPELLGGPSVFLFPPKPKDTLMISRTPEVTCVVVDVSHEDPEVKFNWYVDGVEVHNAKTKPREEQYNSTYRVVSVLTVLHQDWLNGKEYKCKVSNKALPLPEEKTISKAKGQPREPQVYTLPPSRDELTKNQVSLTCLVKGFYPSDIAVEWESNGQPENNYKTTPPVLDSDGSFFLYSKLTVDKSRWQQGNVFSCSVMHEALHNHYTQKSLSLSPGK
light: B1 light
B5: Avelumab N297A (FcγR-binding null IgG1) (antibody, name in EU numbering)
heavy: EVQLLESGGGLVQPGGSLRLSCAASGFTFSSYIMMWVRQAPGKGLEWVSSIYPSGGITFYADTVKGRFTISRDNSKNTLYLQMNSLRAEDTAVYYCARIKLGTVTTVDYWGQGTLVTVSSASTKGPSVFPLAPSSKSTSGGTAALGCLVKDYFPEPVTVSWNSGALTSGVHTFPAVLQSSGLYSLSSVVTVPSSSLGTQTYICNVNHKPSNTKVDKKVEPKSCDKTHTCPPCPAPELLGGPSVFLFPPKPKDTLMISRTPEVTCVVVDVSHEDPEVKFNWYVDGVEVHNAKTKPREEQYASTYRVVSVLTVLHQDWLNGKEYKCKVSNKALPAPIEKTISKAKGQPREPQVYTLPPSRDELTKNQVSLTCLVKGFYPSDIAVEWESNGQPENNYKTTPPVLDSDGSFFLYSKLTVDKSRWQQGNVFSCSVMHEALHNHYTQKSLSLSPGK
light: B1 light
notes: also called Fc-silent (N297A) variant
B6: Avelumab G236A (antibody, human IgG1, lambda)
heavy: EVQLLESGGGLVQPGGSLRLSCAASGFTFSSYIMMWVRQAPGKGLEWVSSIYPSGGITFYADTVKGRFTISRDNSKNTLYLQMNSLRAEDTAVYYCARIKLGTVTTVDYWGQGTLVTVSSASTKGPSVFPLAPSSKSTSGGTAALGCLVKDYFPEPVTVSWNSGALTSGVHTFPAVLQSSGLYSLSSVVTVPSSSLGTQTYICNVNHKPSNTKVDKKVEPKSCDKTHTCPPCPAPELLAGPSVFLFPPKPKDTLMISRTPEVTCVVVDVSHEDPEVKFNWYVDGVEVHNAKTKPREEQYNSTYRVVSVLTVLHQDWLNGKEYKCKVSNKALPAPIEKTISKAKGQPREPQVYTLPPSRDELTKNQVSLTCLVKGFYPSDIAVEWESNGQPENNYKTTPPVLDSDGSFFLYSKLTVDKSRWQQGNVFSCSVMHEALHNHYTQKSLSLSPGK
light: B1 light

How the values were obtained:
[1] = biological target: T3, human FcγRIIIA soluble ectodomain (ELISA) (human, UniProt P08637 17-208); assay: FcγR binding ELISA, plate-bound human FcγRIIIA soluble ectodomain, serially diluted IgG, Δabsorbance 450 nm; panel FcgR3A
T3 construct: extracellular domain
Protocol: (§1) ELISA plates (Nunc) were coated overnight at 4° C. with recombinant PD-L1 (1 μg/mL/well). All sequential steps were performed at room temperature in 2% BSA. After being washed, the plates were blocked for 1 hr with 1×PBS with 2% Bovine serum Albumin and were subsequently incubated for 1 hr with serially diluted IgGs. After washing, plates were incubated for 1 hr with HRP-conjugated anti-mouse IgG (Jackson ImmunoResearch). Detection was performed by TMB Soluble Reagent (ScyTek Laboratories) and reactions stopped with the addition of 0.18 M sulfuric acid. Absorbance at 450 nm was immediately recorded using a SpectraMax Plus spectrophotometer (Molecular Devices) and background absorbance from negative control samples was subtracted. […] After washing, plates were incubated for 1 hr with streptavidin-HRP (Jackson ImmunoResearch). (2) For FcγR binding ELISA, human FcγRs soluble ectodomains (2 μg/ml/well) were immobilized to the plate. After being washed, the plates were blocked for 40 minutes with 1×PBS with 10% Bovine serum Albumin and were subsequently incubated for 2 hours with serially diluted IgGs.

FcgR1 = biological target: T4, FcgR1 (human, UniProt P12314); assay: FcγR binding ELISA, plate-bound human FcγRI soluble ectodomain, serially diluted IgG, Δabsorbance 450 nm; panel FcgR1
T4 construct: soluble ectodomain; also called human FcγRI soluble ectodomain (ELISA); FcγRI
Protocol: as §1

hFcγRIIA R131 = biological target: T1, hFcγRIIA R131; assay: SPR, immobilized FcγRs, soluble IgGs
hFcγRIIB [2] = biological target: T2, hFcγRIIB; assay: SPR, immobilized FcγRs, soluble IgGs
[3] = biological target: T5, hFcγRII^F158 (so in the source); read as hFcγRIIIA F158) (human, UniProt P08637 17-208); assay: SPR, immobilized FcγRs, soluble IgGs
T5 construct: The head is printed 'hFcγRII^F158'; also called huFcγRIIIA

hFcγRIIB [4] = biological target: T2, hFcγRIIB; assay: FcγR binding ELISA, plate-bound human FcγRIIB soluble ectodomain, serially diluted IgG, Δabsorbance 450 nm; panel Fcg2B
Protocol: as §1

[5] = biological target: T6, human FcγRIIIB soluble ectodomain (ELISA) (human, UniProt O75015 17-200, limits assumed); assay: FcγR binding ELISA, plate-bound human FcγRIIIB soluble ectodomain, serially diluted IgG, Δabsorbance 450 nm; panel Fcg3B
T6 construct: extracellular domain
Protocol: as §1

T4 sequence (P12314 16-292 limits assumed): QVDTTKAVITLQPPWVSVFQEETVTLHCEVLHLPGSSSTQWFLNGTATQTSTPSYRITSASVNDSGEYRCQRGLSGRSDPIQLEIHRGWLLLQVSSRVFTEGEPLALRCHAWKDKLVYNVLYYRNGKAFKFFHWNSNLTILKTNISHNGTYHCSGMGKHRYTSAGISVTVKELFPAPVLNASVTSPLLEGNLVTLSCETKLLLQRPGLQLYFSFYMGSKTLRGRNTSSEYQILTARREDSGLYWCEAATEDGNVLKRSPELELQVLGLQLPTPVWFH
T5 sequence (P08637 17-208 limits assumed): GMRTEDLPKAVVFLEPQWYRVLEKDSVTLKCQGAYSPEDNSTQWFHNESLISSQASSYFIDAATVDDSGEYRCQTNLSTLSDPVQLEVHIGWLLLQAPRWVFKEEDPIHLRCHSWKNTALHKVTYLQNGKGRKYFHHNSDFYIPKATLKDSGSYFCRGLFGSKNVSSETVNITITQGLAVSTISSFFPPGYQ
T3 sequence (P08637 17-208): as the sequence (P08637 17-208 limits assumed) above
T6 sequence (O75015 17-200 limits assumed): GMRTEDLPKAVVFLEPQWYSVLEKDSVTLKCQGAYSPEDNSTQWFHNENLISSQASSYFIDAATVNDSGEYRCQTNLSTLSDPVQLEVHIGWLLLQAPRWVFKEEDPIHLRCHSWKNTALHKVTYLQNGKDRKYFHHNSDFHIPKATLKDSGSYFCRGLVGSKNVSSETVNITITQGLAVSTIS

Binder | EC50 (read off the curve) [1] | binding result (FcgR1) | Fold (KD(IgG1)/KD(Fc variant)) (hFcγRIIA R131) | Kd (hFcγRIIA R131) | Fold (KD(IgG1)/KD(Fc variant)) (hFcγRIIB [2]) | Kd (hFcγRIIB [2]) | Fold (KD(IgG1)/KD(Fc variant)) [3] | Kd [3] | binding result [1] | binding result (hFcγRIIB [4]) | binding result (hFcγRIIA R131) | binding result [3] | binding result [5]
B1 | ~2 µg/mL | binds | 1 fold | 1160 nM | 1.1 fold | 2800 nM | 11.6 fold | 578 nM | – | – | – | – | –
B2 | – | binds | 1 fold | 1160 nM | 1 fold | 3010 nM | 1 fold | 6700 nM | – | – | – | – | –
B3 | – | – | 24.5 fold | 47 nM | 14 fold | 230 nM | 29.5 fold | 227 nM | – | – | – | – | –
B4 | – | – | 1.2 fold | 950 nM | 1.1 fold | 2800 nM | 5.4 fold | – | – | – | – | – | –
B5 | – | binds | – | – | – | – | – | – | no binding (tested: log 1.2 (about 16 µg/ml)) | no binding (tested: log 2 (100 µg/ml)) | no binding | no binding | no binding (tested: log 2 (100 µg/ml))
B6 | – | – | 9.3 fold | 120 nM | 0.7 fold | 4380 nM | 1.7 fold | 3900 nM | – | – | – | – | –
